# Assay results: publication PMC8599909
# T1: PUS7(Δ1-98) (Homo sapiens, UniProt Q96PZ0 99-661, del1-98)
# T1 sequence: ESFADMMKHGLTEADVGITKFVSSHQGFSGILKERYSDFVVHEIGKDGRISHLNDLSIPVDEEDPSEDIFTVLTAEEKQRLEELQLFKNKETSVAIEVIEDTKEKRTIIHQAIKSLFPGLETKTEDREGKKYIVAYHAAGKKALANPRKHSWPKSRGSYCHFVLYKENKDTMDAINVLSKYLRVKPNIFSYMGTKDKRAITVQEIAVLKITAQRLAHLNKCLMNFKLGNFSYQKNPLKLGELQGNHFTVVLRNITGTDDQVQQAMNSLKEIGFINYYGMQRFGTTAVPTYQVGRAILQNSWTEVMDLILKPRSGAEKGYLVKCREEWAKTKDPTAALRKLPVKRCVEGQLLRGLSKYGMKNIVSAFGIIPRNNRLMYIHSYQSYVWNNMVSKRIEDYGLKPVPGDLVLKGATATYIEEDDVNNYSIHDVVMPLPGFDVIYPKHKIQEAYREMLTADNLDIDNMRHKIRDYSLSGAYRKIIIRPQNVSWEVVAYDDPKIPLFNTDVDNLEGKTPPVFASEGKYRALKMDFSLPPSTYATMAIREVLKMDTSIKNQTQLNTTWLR
# B1: 18mer-cy-tRNAGln (ssRNA)
# RNA: GGGGCCCCAUGGUGUAAUGG
# Molecular target: T1, PUS7(Δ1-98)
# Test: filter binding
binder,measurement,value
B1,Kd,267 ± 91 nM
